Data as given in article PMC4043820.

Biological target: OsWRKY53 (WT) (Oryza sativa (rice)) (UniProt A7BEY7)
Experiment: EMSA
Details: 12 mM HEPES-KOH pH 8.0, 60 mM KCl, 4 mM MgCl2, 1 mM EDTA, 12% glycerol, 1 mM DTT, 2.5 mM PMSF, 0.1 ug protein in 20 ul, 20 min on ice; 6% PAGE in 1x TBE at …

Chain of OsWRKY53 (WT) (Oryza sativa (rice)) (A7BEY7 entry or part of it): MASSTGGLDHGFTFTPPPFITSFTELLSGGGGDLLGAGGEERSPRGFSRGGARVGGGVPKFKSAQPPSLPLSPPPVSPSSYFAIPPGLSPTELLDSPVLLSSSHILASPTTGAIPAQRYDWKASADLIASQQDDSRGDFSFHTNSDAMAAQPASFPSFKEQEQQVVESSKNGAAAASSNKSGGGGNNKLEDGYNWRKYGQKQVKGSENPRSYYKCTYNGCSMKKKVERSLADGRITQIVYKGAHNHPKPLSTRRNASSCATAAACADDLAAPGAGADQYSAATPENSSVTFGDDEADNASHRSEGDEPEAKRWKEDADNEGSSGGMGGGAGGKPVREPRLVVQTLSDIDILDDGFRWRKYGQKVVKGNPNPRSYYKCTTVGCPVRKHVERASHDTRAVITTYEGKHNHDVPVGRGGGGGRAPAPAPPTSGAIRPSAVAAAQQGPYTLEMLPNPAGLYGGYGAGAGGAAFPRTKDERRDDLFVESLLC

Q: How did the binding turn out when “TTTGGGGATGCTTCGGCGAAGGGGGTGAGGTCAAAGCTCGTGCGGTTTGACCGGTCAGACGAGGCGGCTGAGGCTCGCGC (double strand) [W-box probe (W)]” was run?
A: Its binding is “binds”.
